Data published in the RNAGym collection of RNA variant scans (doi:10.1073/pnas.2313332121).

B1: TPR t1 (parent)
chain: GACCAAUCUGCCCUCAGAGCUCGAGAACAUCUUCGGAUGCAGAGGAGGCAGGCUUCGGUGGCGCGAUAGCGCCAACGUCCUCAACCUCCAAUGCAUCCCACCACAUGAUGAUGCCUGAAGAGCCUUGGUUUUUUG

Variants of: B1
Test: polymerase ribozyme fitness, log enrichment relative to wild type (log ratio); higher = more active; in vitro selection for triplet polymerase activity
Summary of the method: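 In triplicate, a single round of in vitro selection was run on each mutant library, PCR-built and transcribed, covering one subunit of a heterodimeric triplet polymerase ribozyme. Frozen incubation at −7 °C followed annealing with a biotinylated primer, partner subunit and triplets, and extended constructs were then gel-excised, streptavidin-captured and taken through RT-PCR. Fitness is the logarithm of genotype enrichment over wild-type enrichment, from inverse-variance-weighted replicate averages of Illumina-sequenced inputs and outputs. […] only genotypes with ≥10 input reads and ≥1 read per output were kept.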

Row | Variant | polymerase ribozyme fitness (log ratio)
1 | U112G G128C | -2.91
2 | A108U C123G | -3.08
3 | A108U C123A | -5.15
4 | G113C G127C | -3.73
5 | G117A U133A | -1.2
6 | G113C C124U G127C | -3.7
7 | C115G U126C U132A | -4.83
8 | C123A G135A | 0.422
9 | G120A G127C | -0.483
10 | G117U A118U U130C | -3.28
11 | A118U G120U | -0.245
12 | G113C U133A | -2.13
13 | A105U C124U | -0.354
14 | G110C G120U | -4.38
15 | C114G G127A | -4.97
16 | U106G G110C U112C | -5.6
17 | A111U G113C C115G | -7.15
18 | G117A C123A | -0.382
19 | U112G U125C | 0.47
20 | G107A A108G G120A C124A | -3.55
21 | U106G G117C | -1.59
22 | G110U A121C | -2.17
23 | C124A U125A | 1.57
24 | C115U G117A | -1.61

Row | Variant | polymerase ribozyme fitness (log ratio)
25 | G113U U126A | -4.71
26 | A121C U125G | 0.923
27 | C115A A119U G122U | -0.198
28 | G107U C114U | -3.8
29 | G117C U130G | -3.7
30 | G120U G135C | 1.16
31 | U116C U130G | -1.58
32 | G117U U129A | -3.5
33 | C124U U126A | 1.37
34 | A121U G135C | 2.99
35 | G113C G128U | -4.01
36 | C114A G128C | -3.78
37 | C114A G128U | -3.33
38 | C115U U126G | -3.36
39 | G113A U134G G135U | -1.24
40 | G120U C123G | 1.47
41 | U106G A119G | 0.3
42 | C114U U126A | -3.35
43 | U116A A121G | 0.178
44 | G117A A121C | -0.623
45 | U129G U130A | -2.04
46 | G113C C115U | -3.35
47 | A105U U126A U129A U130G | -6
48 | A105U G113A | -4.72

Row | Variant | polymerase ribozyme fitness (log ratio)
49 | G110C G128U | -4.78
50 | U116C G127A U130G | -4.14
51 | G122A | -0.49
52 | G122U | 0.322
53 | G122C | -2.37
54 | G127A U129A | -1.26
55 | G122U U130G | -0.749
56 | C115A C124U | 0.564
57 | A119U U132A | -0.132
58 | A121C G128C | -0.622
59 | A121C G128A | 0.0676
60 | U129A G135C | -0.497
61 | G113A A119U U126A | -3.89
62 | A111G U132A | 0.715
63 | G113A C115U | -3.6
64 | U130G U131A | -0.66
65 | C115G G128U | -5
66 | G110C G117U | -5.43
67 | U112A G128U | -0.362
68 | A118U U133A | -1.21
69 | G127A U130C | -0.727
70 | G110A U112C G117A | -4.79
71 | G120C G135A | 0.738
72 | G120C G135U | -0.76

Row | Variant | polymerase ribozyme fitness (log ratio)
73 | U109A U131G | -5.71
74 | G127U U132C | -0.0869
75 | G110C U125C | -2.68
76 | C123A C124U | 2.15
77 | G110A A118G | -1.12
78 | C115U G128A | -2.99
79 | G127C G128U U133A | -1.83
80 | A105U U116C | -3.7
81 | U131C U132A | -0.543
82 | G113U U133C | -2.64
83 | C123U C124A | 2.14
84 | G110U C123U | -1.39
85 | G122A U130A | -0.49
86 | G120C G128C | -2.04
87 | G117A U125A | -3.14
88 | G113A G128A | -2.92
89 | U112C U129C | 0.894
90 | C114U C123U | -1.92
91 | U109A G120C | -4
92 | G122U C124G U130A | 0.942
93 | G120A U132C | 0.977
94 | C114U U129G | -4.52
95 | C114U U129A | -3.98
96 | C123G U129A | -1.13

Row | Variant | polymerase ribozyme fitness (log ratio)
97 | U109G A118G | -5.14
98 | G127U G128A | -2.19
99 | A105C C114A | -3.98
100 | G107A G122A | -5.18
101 | A118U C123U | -0.82
102 | A121U U125A | 1.66
103 | A108U G120U | -5.29
104 | G117A G128C | -3.45
105 | U112A G120A | 0.565
106 | G117U A119U C123U | -0.29
107 | G117C G122U | -3.99
108 | C124A G128U | 0.625
109 | U112G A118G | 0.909
110 | U106A U129A | -1.17
111 | G113C G122A | -3.11
112 | G113C G122U | -1.42
113 | U112C U132A | 1.65
114 | C123A G128U | -0.255
115 | C114A G117U | -6.19
116 | U116G G117C | -2.43
117 | A105U G135U | -2.99
118 | A105U G135C | -2.07
119 | U112C C123A | -0.0765
120 | G113C G120U | -3.23

Row | Variant | polymerase ribozyme fitness (log ratio)
121 | G110C U133A | -4.65
122 | U112A U130G | -0.266
123 | U112A U130C | 1.38
124 | G117A G120A | -2.42
125 | G113U G122A | -2.45
126 | U109C C114U | -4.7
127 | G117C C124A | -1.5
128 | A105C G120A A121U | -1.51
129 | U109C U132A | -4.52
130 | A119U A121U | 1.77
131 | G110U G117C | -5.42
132 | A111G C114G C123U | -6.41
133 | C123G U131A | 0.367
134 | G107A U130C | -4.85
135 | C115A U126C | -0.397
136 | U106G C123U G127A | -3.09
137 | C115U U131A | -0.58
138 | G110C U129G | -5.19
139 | U133G G135C | 0.463
140 | A111U U125A | -3.84
141 | U112G G127C U130C | -0.498
142 | A119U G127U | -2.01
143 | G117C U131A | -4.01
144 | U109C A118U | -4.34

Row | Variant | polymerase ribozyme fitness (log ratio)
145 | A111C G122U C123U U130C | -0.737
146 | C123G U133A | 2.19
147 | C123G U125C | 1.61
148 | G110A G113A | -3.95
149 | U112C U116A | -1.02
150 | G107C G110A G117A U130C | -6.86
151 | G110A G122A C123U | -2.1
152 | A111U G113A | -4.49
153 | A118U G128A | -1.29
154 | G110A C124G G128C | -3.19
155 | U116A U125A | -3.4
156 | C104U U116C | -0.608
157 | G107U G113A | -3.27
158 | U129C | -0.185
159 | U129A | -1.11
160 | U129G | -1.1
161 | C114A G122A | -2.53
162 | G120U G128C | -1.03
163 | U106A G117U G127U | -0.344
164 | U116G G128U | -4.55
165 | A111C U126C | 0.272
166 | U106A A111C | -1.96
167 | G117C A121C | -3.29
